How the values were obtained:
[1] = target: T1, GLA2 rationally-designed meganuclease (I-CreI derivative)
T1 chain: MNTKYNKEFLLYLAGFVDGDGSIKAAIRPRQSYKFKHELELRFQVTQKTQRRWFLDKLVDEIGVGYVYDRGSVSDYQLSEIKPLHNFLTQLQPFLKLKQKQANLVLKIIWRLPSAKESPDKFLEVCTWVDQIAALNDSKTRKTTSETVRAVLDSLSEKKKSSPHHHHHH

[2] = target: T2, BRP2 rationally-designed meganuclease (I-CreI derivative)
T2 chain: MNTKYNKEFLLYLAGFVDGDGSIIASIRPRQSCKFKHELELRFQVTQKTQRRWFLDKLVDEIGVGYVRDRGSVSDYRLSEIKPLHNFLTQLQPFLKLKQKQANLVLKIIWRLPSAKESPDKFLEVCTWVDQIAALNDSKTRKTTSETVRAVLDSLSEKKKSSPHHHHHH

[3] = target: T3, ANT2 rationally-designed meganuclease (I-CreI derivative)
T3 chain: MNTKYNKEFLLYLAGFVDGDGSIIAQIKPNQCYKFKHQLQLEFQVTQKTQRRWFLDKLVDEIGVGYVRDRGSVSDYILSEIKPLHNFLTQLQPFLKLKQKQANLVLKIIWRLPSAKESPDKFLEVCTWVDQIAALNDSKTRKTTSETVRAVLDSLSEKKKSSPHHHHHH

[4] = target: T4, PDX2 rationally-designed meganuclease (I-CreI derivative)
T4 chain: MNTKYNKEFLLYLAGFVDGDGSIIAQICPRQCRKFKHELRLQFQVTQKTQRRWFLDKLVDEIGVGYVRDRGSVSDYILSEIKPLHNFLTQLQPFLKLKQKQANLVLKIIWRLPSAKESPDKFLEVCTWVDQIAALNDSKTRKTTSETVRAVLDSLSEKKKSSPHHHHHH

[5] = target: T5, LAM2 variant in which glutamic acids at positions 8 and 61 were changed to lysine
T5 chain: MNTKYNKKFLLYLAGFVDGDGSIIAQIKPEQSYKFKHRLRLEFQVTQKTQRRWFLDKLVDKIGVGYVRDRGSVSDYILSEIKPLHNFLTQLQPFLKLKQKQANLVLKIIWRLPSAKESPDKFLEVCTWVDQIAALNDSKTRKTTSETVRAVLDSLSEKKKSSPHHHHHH

[6] = target: T6, LAM2 rationally-designed meganuclease (I-CreI derivative)
T6 chain: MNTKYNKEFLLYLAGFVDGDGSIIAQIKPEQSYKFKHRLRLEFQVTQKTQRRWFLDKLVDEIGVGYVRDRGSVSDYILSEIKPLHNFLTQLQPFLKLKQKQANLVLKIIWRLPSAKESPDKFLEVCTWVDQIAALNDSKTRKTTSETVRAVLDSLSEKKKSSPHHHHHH

[7] = target: T7, ACH2 rationally-designed meganuclease (I-CreI derivative)
T7 chain: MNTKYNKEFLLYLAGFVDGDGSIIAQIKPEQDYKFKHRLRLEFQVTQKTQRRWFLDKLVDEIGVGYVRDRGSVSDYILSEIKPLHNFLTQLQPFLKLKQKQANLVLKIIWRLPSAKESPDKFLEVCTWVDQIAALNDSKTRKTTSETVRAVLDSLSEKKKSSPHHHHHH

[8] = target: T8, HGH2 rationally-designed meganuclease (I-CreI derivative; partner of HGH1, half-site SEQ ID NO: 56)
T8 chain: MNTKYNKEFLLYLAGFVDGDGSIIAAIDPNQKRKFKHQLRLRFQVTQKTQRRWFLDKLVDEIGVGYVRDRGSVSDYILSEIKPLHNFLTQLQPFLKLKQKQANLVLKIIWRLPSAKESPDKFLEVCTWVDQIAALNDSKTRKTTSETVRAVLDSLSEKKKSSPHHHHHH

[9] = target: T9, URA2 rationally-designed meganuclease (I-CreI derivative)
T9 chain: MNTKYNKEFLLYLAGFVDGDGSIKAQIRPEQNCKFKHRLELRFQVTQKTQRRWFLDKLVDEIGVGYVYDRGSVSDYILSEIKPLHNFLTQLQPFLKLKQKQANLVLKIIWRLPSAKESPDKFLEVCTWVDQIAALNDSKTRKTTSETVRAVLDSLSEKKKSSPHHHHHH

[10] = target: T10, HGH2 rationally-designed meganuclease (I-CreI derivative; partner of CYP, half-site SEQ ID NO: 76)
T10 chain: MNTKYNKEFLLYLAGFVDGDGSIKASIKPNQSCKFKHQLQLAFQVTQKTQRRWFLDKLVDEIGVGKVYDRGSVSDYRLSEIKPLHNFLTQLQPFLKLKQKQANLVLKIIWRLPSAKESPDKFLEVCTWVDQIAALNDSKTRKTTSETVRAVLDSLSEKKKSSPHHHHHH

[11] = target: T11, CF2 rationally-designed meganuclease (I-CreI derivative)
T11 chain: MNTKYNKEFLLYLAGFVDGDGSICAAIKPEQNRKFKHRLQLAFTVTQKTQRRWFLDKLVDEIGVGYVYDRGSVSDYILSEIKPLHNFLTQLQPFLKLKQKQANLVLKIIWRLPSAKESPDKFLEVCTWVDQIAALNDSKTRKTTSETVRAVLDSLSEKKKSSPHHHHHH

[12] = target: T12, MGC2 rationally-designed meganuclease (I-CreI derivative)
T12 chain: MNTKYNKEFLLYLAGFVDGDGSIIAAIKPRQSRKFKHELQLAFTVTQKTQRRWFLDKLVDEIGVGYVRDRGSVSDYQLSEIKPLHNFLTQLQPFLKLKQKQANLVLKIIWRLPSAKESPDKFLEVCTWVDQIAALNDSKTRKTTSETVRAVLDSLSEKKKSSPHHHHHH

B1: GLA1 rationally-designed meganuclease (I-CreI derivative) (protein)
chain: MNTKYNKEFLLYLAGFVDGDGSIKAAIKPRQSYKFKHELSLAFQVTQKTQRRWFLDKLVDEIGVGYVYDRGSVSDYQLCEIKPLHNFLTQLQPFLKLKQKQANLVLKIIWRLPSAKESPDKFLEVCTWVDQIAALNDSKTRKTTSETVRAVLDSLSEKKKSSPHHHHHH
- cleavage of a linearized DNA substrate containing the intended non-palindromic recognition sequence by the 1:1 mixture [1]: each rationally-designed meganuclease heterodimer cleaves its intended DNA site

B2: BRP1 rationally-designed meganuclease (I-CreI derivative) (protein)
chain: MNTKYNKEFLLYLAGFVDGDGSIKAQIRPRQCRKFKHELELAFQVTQKTQRRWFLDKLVDEIGVGKVYDRGSVSDYELSEIKPLHNFLTQLQPFLKLKQKQANLVLKIIWRLPSAKESPDKFLEVCTWVDQIAALNDSKTRKTTSETVRAVLDSLSEKKKSSPHHHHHH
- cleavage of a linearized DNA substrate containing the intended non-palindromic recognition sequence by the 1:1 mixture [2]: each rationally-designed meganuclease heterodimer cleaves its intended DNA site

B3: ANT1 rationally-designed meganuclease (I-CreI derivative) (protein)
chain: MNTKYNKEFLLYLAGFVDGDGSIIAQIAPNQNCKFKHQLQLRFQVTQKTQRRWFLDKLVDEIGVGYVRDRGSVSDYILSEIKPLHNFLTQLQPFLKLKQKQANLVLKIIWRLPSAKESPDKFLEVCTWVDQIAALNDSKTRKTTSETVRAVLDSLSEKKKSSPHHHHHH
- cleavage of a linearized DNA substrate containing the intended non-palindromic recognition sequence by the 1:1 mixture [3]: each rationally-designed meganuclease heterodimer cleaves its intended DNA site

B4: PDX1 rationally-designed meganuclease (I-CreI derivative) (protein)
chain: MNTKYNKEFLLYLAGFVDGDGSIIAQIKPNQNCKFKHQLQLAFQVTQKTQRRWFLDKLVDEIGVGYVRDRGSVSDYILSEIKPLHNFLTQLQPFLKLKQKQANLVLKIIWRLPSAKESPDKFLEVCTWVDQIAALNDSKTRKTTSETVRAVLDSLSEKKKSSPHHHHHH
- cleavage of a linearized DNA substrate containing the intended non-palindromic recognition sequence by the 1:1 mixture [4]: each rationally-designed meganuclease heterodimer cleaves its intended DNA site

B5: LAM1 variant in which lysines at positions 7, 57 and 96 were changed to glutamic acids (protein)
chain: MNTKYNEEFLLYLAGFVDGDGSIIAQIDPRQCRKFKHELRLRFQVTQKTQRRWFLDELVDEIGVGYVRDRGSVSDYILSEIKPLHNFLTQLQPFLELKQKQANLVLKIIWRLPSAKESPDKFLEVCTWVDQIAALNDSKTRKTTSETVRAVLDSLSEKKKSSPHHHHHH
- cleavage of the LAM1/LAM2 hybrid site against the two palindromic sites by the co-expressed interface variants [5]: the LAM1/LAM2 hybrid site was found to be cleaved preferentially over the two palindromic sites

B6: LAM1 rationally-designed meganuclease (I-CreI derivative) (protein)
chain: MNTKYNKEFLLYLAGFVDGDGSIIAQIDPRQCRKFKHELRLRFQVTQKTQRRWFLDKLVDEIGVGYVRDRGSVSDYILSEIKPLHNFLTQLQPFLKLKQKQANLVLKIIWRLPSAKESPDKFLEVCTWVDQIAALNDSKTRKTTSETVRAVLDSLSEKKKSSPHHHHHH
- cleavage of the non-palindromic LAM1/LAM2 hybrid DNA site by a 1:1 mixture incubated at 42 C for 20 minutes [6]: The 1:1 mixture of LAM1 and LAM2, however, cleaves all three DNA sites
- cleavage of the non-palindromic LAM1/LAM2 hybrid DNA site by the co-expressed enzyme mixture [6]: The co-expressed enzyme mixture was found to cleave all three sites, including the LAM1/LAM2 hybrid site

B7: ACH1 rationally-designed meganuclease (I-CreI derivative) (protein)
chain: MNTKYNKEFLLYLAGFVDGDGSIIAAIDPEQDCKFKHRLRLRFQVTQKTQRRWFLDKLVDEIGVGYVRDRGSVSDYQLSEIKPLHNFLTQLQPFLKLKQKQANLVLKIIWRLPSAKESPDKFLEVCTWVDQIAALNDSKTRKTTSETVRAVLDSLSEKKKSSPHHHHHH
- cleavage of a linearized DNA substrate containing the intended non-palindromic recognition sequence by the 1:1 mixture [7]: each rationally-designed meganuclease heterodimer cleaves its intended DNA site

B8: HGH1 rationally-designed meganuclease (I-CreI derivative) (protein)
chain: MNTKYNKEFLLYLAGFVDGDGSIIAQIDPNQDCKFKHQLRLRFQVTQKTQRRWFLDKLVDEIGVGYVRDRGSVSDYILSEIKPLHNFLTQLQPFLKLKQKQANLVLKIIWRLPSAKESPDKFLEVCTWVDQIAALNDSKTRKTTSETVRAVLDSLSEKKKSSPHHHHHH
- cleavage of a linearized DNA substrate containing the intended non-palindromic recognition sequence by the 1:1 mixture [8]: each rationally-designed meganuclease heterodimer cleaves its intended DNA site

B9: URA1 rationally-designed meganuclease (I-CreI derivative) (protein)
chain: MNTKYNKEFLLYLAGFVDGDGSIIAQIKPNQSCKFKHQLRLAFTVTQKTQRRWFLDKLVDEIGVGYVRDRGSVSDYILSEIKPLHNFLTQLQPFLKLKQKQANLVLKIIWRLPSAKESPDKFLEVCTWVDQIAALNDSKTRKTTSETVRAVLDSLSEKKKSSPHHHHHH
- cleavage of a linearized DNA substrate containing the intended non-palindromic recognition sequence by the 1:1 mixture [9]: each rationally-designed meganuclease heterodimer cleaves its intended DNA site

B10: CYP rationally-designed meganuclease (I-CreI derivative) (protein)
chain: MNTKYNKEFLLYLAGFVDGDGSIIAAIKPNQDYKFKHQLRLAFQVTQKTQRRWFLDKLVDEIGVGYVYDRGSVSDYQLSEIKPLHNFLTQLQPFLKLKQKQANLVLKIIWRLPSAKESPDKFLEVCTWVDQIAALNDSKTRKTTSETVRAVLDSLSEKKKSSPHHHHHH
- cleavage of a linearized DNA substrate containing the intended non-palindromic recognition sequence by the 1:1 mixture [10]: each rationally-designed meganuclease heterodimer cleaves its intended DNA site

B11: CF1 rationally-designed meganuclease (I-CreI derivative) (protein)
chain: MNTKYNKEFLLYLAGFVDGDGSICAQIKPNQSYKFKHQLQLAFQVTQKTQRRWFLDKLVDEIGVGYVHDRGSVSDYILSEIKPLHNFLTQLQPFLKLKQKQANLVLKIIWRLPSAKESPDKFLEVCTWVDQIAALNDSKTRKTTSETVRAVLDSLSEKKKSSPHHHHHH
- cleavage of a linearized DNA substrate containing the intended non-palindromic recognition sequence by the 1:1 mixture [11]: each rationally-designed meganuclease heterodimer cleaves its intended DNA site

B12: MGC1 rationally-designed meganuclease (I-CreI derivative) (protein)
chain: MNTKYNKEFLLYLAGFVDGDGSIKAQIKPNQCYKFKHQLQLAFQVTQKTQRRWFLDKLVDEIGVGYVYDRGSVSDYILSEIKPLHNFLTQLQPFLKLKQKQANLVLKIIWRLPSAKESPDKFLEVCTWVDQIAALNDSKTRKTTSETVRAVLDSLSEKKKSSPHHHHHH
- cleavage of a linearized DNA substrate containing the intended non-palindromic recognition sequence by the 1:1 mixture [12]: each rationally-designed meganuclease heterodimer cleaves its intended DNA site
